Laboratory results: PMC10821612

Key:
[1] = molecular target: AMS0229 E1E2 glycoprotein on HCV pseudoparticles (HCVpp) (Hepatitis C virus (genotype 1a))
[2] = molecular target: UKNP2.4.1 E1E2 glycoprotein on HCV pseudoparticles (HCVpp) (Hepatitis C virus (genotype 2))
[3] = molecular target: UKNP1.2.3 E1E2 glycoprotein on HCV pseudoparticles (HCVpp) (Hepatitis C virus)

Soluble CD81 LEL with Strep-tag (soluble version of the long external loop of the CD81 receptor) (domain or fragment)
IC50 of neutralisation of HCVpp infection of Huh-7 cells (luciferase) [1]: 92 µg/mL | IC50 of neutralisation of HCVpp infection of Huh-7 cells (luciferase) [2]: 82 µg/mL | IC50 of neutralisation of HCVpp infection of Huh-7 cells (luciferase) [3]: 85 µg/mL
